B1: T3.18 (anti-hu FAP/hu scLIGHT(GGSG)-LTb2, hu IgG1 DANG) (bispecific antibody)
heavy: QVQLVQSGAEVKKPGASVKVSCKTSRYTFTEYTIHWVRQAPGQRLEWIGGINPNNGIPNYNQKFKGRVTITVDTSASTAYMELSSLRSEDTAVYYCARRRIAYGYDEGHAMDYWGQGTLVTVSSASTKGPSVFPLAPSSKSTSGGTAALGCLVKDYFPEPVTVSWNSGALTSGVHTFPAVLQSSGLYSLSSVVTVPSSSLGTQTYICNVNHKPSNTKVDKKVEPKSCDKTHTCPPCPAPELLGGPSVFLFPPKPKDTLMISRTPEVTCVVVAVSHEDPEVKFNWYVDGVEVHNAKTKPREEQYGSTYRVVSVLTVLHQDWLNGKEYKCKVSNKALPAPIEKTISKAKGQPREPQVYTLPPSRDELTKNQVSLWCLVKGFYPSDIAVEWESNGQPENNYKTTPPVLDSDGSFFLYSKLTVDKSRWQQGNVFSCSVMHEALHNHYTQKSLSLSPGK
light: not shown
chain: not shown
notes: Knob-into-hole; LIGHT-LTb2 heterotrimer with GGSG linker after LIGHT
B2: T3.10 (anti-hu FAP/null, hu IgG1 DANG) (antibody)
heavy: QVQLVQSGAEVKKPGASVKVSCKTSRYTFTEYTIHWVRQAPGQRLEWIGGINPNNGIPNYNQKFKGRVTITVDTSASTAYMELSSLRSEDTAVYYCARRRIAYGYDEGHAMDYWGQGTLVTVSSASTKGPSVFPLAPSSKSTSGGTAALGCLVKDYFPEPVTVSWNSGALTSGVHTFPAVLQSSGLYSLSSVVTVPSSSLGTQTYICNVNHKPSNTKVDKKVEPKSCDKTHTCPPCPAPELLGGPSVFLFPPKPKDTLMISRTPEVTCVVVAVSHEDPEVKFNWYVDGVEVHNAKTKPREEQYGSTYRVVSVLTVLHQDWLNGKEYKCKVSNKALPAPIEKTISKAKGQPREPQVYTLPPSRDELTKNQVSLWCLVKGFYPSDIAVEWESNGQPENNYKTTPPVLDSDGSFFLYSKLTVDKSRWQQGNVFSCSVMHEALHNHYTQKSLSLSPGK
light: not shown
chain: not shown
notes: One-armed anti-FAP knob-into-hole antibody without LIGHT; used as the control for LIGHT activity

Key:
[1] = target: T1, human FAP on HEK293-hFAP cells (human, UniProt Q12884 1-760); assay: flow cytometry on HEK293-hFAP cells, 1 µg protein, anti-human IgG detection
T1 construct: whole, on cells; also called human FAP-expressing cell line
T1 sequence (looked up): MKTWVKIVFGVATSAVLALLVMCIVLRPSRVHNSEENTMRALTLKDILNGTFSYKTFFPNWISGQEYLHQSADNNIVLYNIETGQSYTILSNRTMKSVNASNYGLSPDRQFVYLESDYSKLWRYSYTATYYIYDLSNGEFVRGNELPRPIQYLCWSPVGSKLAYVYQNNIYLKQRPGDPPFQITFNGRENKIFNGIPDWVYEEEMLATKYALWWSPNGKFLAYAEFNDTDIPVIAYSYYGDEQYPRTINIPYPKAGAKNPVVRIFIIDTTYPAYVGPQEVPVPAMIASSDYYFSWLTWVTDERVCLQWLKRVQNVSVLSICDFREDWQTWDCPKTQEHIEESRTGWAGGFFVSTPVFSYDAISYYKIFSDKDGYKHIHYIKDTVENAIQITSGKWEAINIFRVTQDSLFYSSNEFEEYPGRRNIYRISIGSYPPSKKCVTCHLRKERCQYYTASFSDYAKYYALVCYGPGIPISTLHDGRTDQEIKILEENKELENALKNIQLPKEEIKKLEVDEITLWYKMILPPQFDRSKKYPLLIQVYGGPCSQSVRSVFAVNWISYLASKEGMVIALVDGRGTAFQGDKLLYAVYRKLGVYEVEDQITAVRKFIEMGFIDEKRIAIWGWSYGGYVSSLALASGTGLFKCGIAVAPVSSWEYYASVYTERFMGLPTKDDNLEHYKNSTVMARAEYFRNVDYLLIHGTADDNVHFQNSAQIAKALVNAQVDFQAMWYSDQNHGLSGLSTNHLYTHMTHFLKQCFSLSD
Protocol: (§1) Specifically, the cell line was prepared by suspending in a FACS buffer solution at 1×10⁵ cells/100 μL, and treated with 1 μg each of T3.10, T3.01, T3.05, T3.06, T3.14, and T3.18. The cells were washed twice with a FACS buffer solution. The cells were stained with an anti-human IgG antibody (Biolegend). The negative control sample was stained only with an anti-human IgG antibody (Biolegend). The expression ratio of the stained cells was measured using BD LSR and analyzed using FlowJo software.

[2] = target: T2, human DcR3 (human, UniProt O95407 30-300); assay: SPR, human DcR3 immobilised on CM5, fusion protein as analyte, 1:1 binding model
T2 construct: also called LIGHT receptor DcR3
T2 sequence (looked up): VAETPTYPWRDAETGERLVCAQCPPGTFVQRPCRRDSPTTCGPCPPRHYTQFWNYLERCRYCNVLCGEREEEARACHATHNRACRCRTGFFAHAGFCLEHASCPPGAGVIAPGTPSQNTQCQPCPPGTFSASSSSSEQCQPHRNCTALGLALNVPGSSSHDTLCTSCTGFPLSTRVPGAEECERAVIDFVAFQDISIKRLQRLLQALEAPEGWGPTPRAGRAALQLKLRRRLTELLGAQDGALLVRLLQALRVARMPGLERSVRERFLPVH
Protocol: (§2) Specifically, the surface of the CM5 chip was activated with a 1:1 mixture of […], and 5 to 6 μg/mL of human DcR3 was immobilized for 60 seconds at a rate of 10 μL/min. The remaining active ester groups were blocked with 1 M ethanolamine. T3.01, T3.07, T3.09, T3.14, and T3.18 were each diluted to 50 nM or 200 nM in 1×HBS-EP+buffer solution and diluted by serial dilution. The diluted fusion proteins were reacted at a rate of 30 μL/min. The association and dissociation times were 180 seconds and 400 seconds, respectively. After the dissociation step, stabilization was performed for 60 seconds, and then the regeneration step was performed for 30 seconds with a 10 mM glycine pH 1.5 solution at a rate of 30 μL/min.

[3] = target: T3, human LTβR on A375 cells (human, UniProt P36941 31-435); assay: flow cytometry on A375 cells, serial dilution from 500 nM, anti-human IgG detection
T3 construct: whole, on cells; Endogenous receptor of a human cell line; also called LTβR expressing A375 cells; LTβR expressing cell line
T3 sequence (P36941 31-435): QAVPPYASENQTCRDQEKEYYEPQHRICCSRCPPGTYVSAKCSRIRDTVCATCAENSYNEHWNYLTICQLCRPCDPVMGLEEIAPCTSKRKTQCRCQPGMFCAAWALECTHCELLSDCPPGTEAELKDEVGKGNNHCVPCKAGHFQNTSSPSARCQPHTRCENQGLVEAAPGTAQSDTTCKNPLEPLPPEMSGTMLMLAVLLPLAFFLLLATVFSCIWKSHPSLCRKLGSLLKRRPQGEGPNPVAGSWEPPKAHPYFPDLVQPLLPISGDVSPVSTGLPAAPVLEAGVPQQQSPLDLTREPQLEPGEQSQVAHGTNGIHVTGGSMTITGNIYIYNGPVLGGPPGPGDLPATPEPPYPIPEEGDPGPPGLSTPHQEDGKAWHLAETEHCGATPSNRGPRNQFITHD
Protocol: Specifically, the A375 cell line was prepared by suspending in a FACS buffer solution at 1×10⁵ cells/100 μL, and treated with 100 μL each of T3.01, T3.07, T3.04, and T3.18 prepared by suspending at 500 nM and diluting by serial dilution. The cells were washed twice with a FACS buffer solution. The cells were stained with an anti-human IgG antibody (Biolegend). The expression ratio of the stained cells was measured using BD LSR and analyzed using FlowJo software.

[4] = target: T1, human FAP on HEK293-hFAP cells; assay: flow cytometry on HEK293-hFAP cells, 1 ug protein per 1x10^5 cells, anti-human IgG detection (axis TMEkine-PE)
Protocol: as §1

[5] = target: T4, recombinant human lymphotoxin beta receptor (LTβR) (human, UniProt P36941 28-227, limits assumed); assay: SPR, human LTβR immobilised on CM5, fusion protein as analyte, 1:1 binding model
T4 construct: neither construct is described; also called human LTβR; recombinant human LTβR protein
T4 sequence (P36941 28-227 limits assumed): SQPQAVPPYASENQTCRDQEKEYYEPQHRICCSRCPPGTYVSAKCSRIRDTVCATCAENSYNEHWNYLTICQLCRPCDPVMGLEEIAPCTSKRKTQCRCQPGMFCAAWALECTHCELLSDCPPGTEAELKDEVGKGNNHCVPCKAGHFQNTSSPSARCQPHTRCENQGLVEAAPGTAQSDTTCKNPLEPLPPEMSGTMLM
Protocol: as §2, with “5” for “5 to 6”, “LTβR” for “DcR3”, “T3.01, T3.07, T3.09, T3.14, and T3.18 were each diluted to 50 nM or 200 nM in 1×HBS-EP+buffer solution and diluted by serial dilution.” left out

[6] = target: T3, human LTβR on A375 cells; assay: cell-based or functional assay
[7] = target: T5, recombinant human herpes virus entry mediator (HVEM) (human, UniProt Q92956 39-202); assay: SPR, human HVEM immobilised on the chip (title: PRO121; 6ug/ml human HVEM pH5.5), T3.18 as analyte 0.78125-100 nM
T5 construct: neither construct is described; also called human HVEM; recombinant human HVEM protein (R&D systems)
T5 sequence (looked up): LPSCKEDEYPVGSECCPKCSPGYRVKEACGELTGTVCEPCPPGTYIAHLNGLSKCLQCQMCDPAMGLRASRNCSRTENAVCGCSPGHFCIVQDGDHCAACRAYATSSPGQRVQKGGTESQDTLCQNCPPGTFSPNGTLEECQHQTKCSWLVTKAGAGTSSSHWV
Protocol: as §2, with “HVEM” for “DcR3”, “100” for “50 nM or 200”

[8] = target: T5, recombinant human herpes virus entry …; assay: sandwich ELISA: plate coated with recombinant human HVEM 1 ug/mL, fusion protein from 1 nM in serial dilution, detected with biotinylated recombinant human FAP and streptavidin conjugate, OD 450 nm
Protocol: Considering that LIGHT of the fusion protein must bind to the herpes virus entry mediator (HVEM) for the action, it was confirmed that T3.01 binds to the recombinant human HVEM, as follows: [0370] (i) The recombinant human HVEM protein (R&D systems) was suspended at 1 μg/mL, dispensed in a 96-well immune plate, and treated for 24 hours. [0371] (ii) The wells were washed with a wash solution, and then blocking was performed for 1 hour with 1% BSA (bovine serum albumin, Sigma) solution. [0372] (iii) The wells were washed with a wash solution, and then T3.01, T3.14, T3.16, T3.17, T3.18 and T3.10, or T3.05, T3.06, T3.04, T3.14 and T3.10 were suspended at 1 nM and diluted by serial dilution. The wells were treated with the diluted T3.01, T3.14, T3.16, T3.17, T3.18 and T3.10, or T3.05, T3.06, T3.04, T3.14 and T3.10 for 2 hours. [0373] (iv) The wells were washed with a wash solution, and then treated with the human recombinant FAP-biotin diluted at 0.5 μg/mL for 2 hours. [0374] (v) The wells were washed with a wash solution, and then treated with streptavidin-RP for 20 minutes. [0375] (vi) The wells were washed with a wash solution, and then treated with a substrate solution for 20 minutes. [0376] (vii) The wells were treated with a stop solution, and the absorbance was measured at 450 nm.

[9] = target: T4, recombinant human lymphotoxin beta …; assay: sandwich ELISA: plate coated with recombinant human LTbR 1 ug/mL, fusion protein from 1 nM in serial dilution, detected with biotinylated recombinant human FAP and streptavidin conjugate, OD 450 nm
Protocol: (i) The recombinant human LTβR protein was suspended at 1 μg/mL, dispensed in a 96-well immune plate, and treated for 24 hours. [0380] (ii) The wells were washed with a wash solution, and then blocking was performed for 1 hour with 1% BSA (bovine serum albumin, Sigma) solution. [0381] (iii) The wells were washed with a wash solution, and then T3.01, T3.14, T3.16, T3.17, T3.18 and T3.10, or T3.05, T3.06, T3.04, T3.14 and T3.10 were suspended at 1 nM and diluted by serial dilution. The wells were treated with the diluted T3.01, T3.14, T3.16, T3.17, T3.18 and T3.10, or T3.05, T3.06, T3.04, T3.14 and T3.10 for 2 hours. […] (iv) The wells were washed with a wash solution, and then treated with the human recombinant FAP-biotin diluted at 0.5 μg/mL for 2 hours. [0383] (v) The wells were washed with a wash solution, and then treated with streptavidin-RP for 20 minutes. [0384] (vi) The wells were washed with a wash solution, and then treated with a substrate solution for 20 minutes. [0385] (vii) The wells were treated with a stop solution, and the absorbance was measured at 450 nm.

[10] = target: T3, human LTβR on A375 cells; assay: flow cytometry on A375 cells, anti-human IgG detection (axis TMEkine-PE); concentration not printed on the sheet

| Binder | percent of cells bound [1] | Kd [2] | koff [2] | kon [2] | percent of cells bound [3] | percent of cells in the positive gate [4] | Kd [5] | koff [5] | kon [5] | IL-8 secretion of A375 cells, EC50 (FIG. 15b) [6] | binding result [7] | binding result [8] | binding result [9] | binding result [10] |
| --- | --- | --- | --- | --- | --- | --- | --- | --- | --- | --- | --- | --- | --- | --- |
| B1 | ≥ 99% | 7.93 nM | 0.0017 s⁻¹ | 214000 M⁻¹ s⁻¹ | ≥ 96% | 99.8% | 0.245 nM | 0.000315 s⁻¹ | 1.29e+06 M⁻¹ s⁻¹ | 0.0778 nM | no binding (tested: 100 nM) | – | – | – |
| B2 | ≥ 99% | – | – | – | – | 99.3% | – | – | – | – | – | no binding (tested: 1000 pM) | no binding (tested: 1000 pM) | no binding |

Source: patent US20250368754A1 (KANAPH THERAPEUTICS, published 2025)
